In EP1255844B1 (MILLENNIUM PHARMACEUTICALS, INC., dated 2007):
“And” between values parts separate entries of the source, which are not always exact repeats. Equal entries are not always repeated.

Experiments:
[1] = molecular target: T1, human CC-chemokine receptor 2 (CCR2) as naturally expressed on THP-1 cells, THP-1 cell membranes, fresh human … (human, UniProt P41597 1-374); assay: competition with 0.1 nM [125I]MCP-1 on THP-1 cell membranes, filtration and scintillation counting
T1 construct: whole, on cells; In one assay membranes of THP-1 cells were used instead of whole cells; also called CKR-2; MCP-1RA
T1 sequence (P41597 whole entry): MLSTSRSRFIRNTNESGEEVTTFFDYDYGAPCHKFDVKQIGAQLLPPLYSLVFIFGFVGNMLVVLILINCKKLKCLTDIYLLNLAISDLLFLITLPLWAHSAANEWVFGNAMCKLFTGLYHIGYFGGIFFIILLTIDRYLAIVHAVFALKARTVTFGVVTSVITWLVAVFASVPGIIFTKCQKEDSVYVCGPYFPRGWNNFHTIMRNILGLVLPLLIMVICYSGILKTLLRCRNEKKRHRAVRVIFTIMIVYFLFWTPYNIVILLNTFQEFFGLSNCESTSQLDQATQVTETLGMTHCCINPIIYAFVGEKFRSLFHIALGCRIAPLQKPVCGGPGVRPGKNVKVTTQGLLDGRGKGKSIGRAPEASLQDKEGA

[2] = molecular target: T1, human CC-chemokine receptor 2 (CCR2) as …; assay: competition with 0.1 nM [125I]MCP-1 on fresh human PBMC, filtration and scintillation counting

IC50 [1]: ~0.004 µg/mL and ~0.02 nM
IC50 [2]: 0.04 µg/mL and ~0.2 nM
B1: murine monoclonal antibody LS132.1D9 (1D9) (antibody, V domains shown)
VH: EVQLVESGGGLVQPKGSLKLSCAASGFSFNAYAMNWVRQAPGKGLEWVARIRTKNNNYATYYADSVKDRYTISRDDSESMLFLQMNNLKTEDTAMYYCVTFYGNGVWGTGTTVTVSS
VL: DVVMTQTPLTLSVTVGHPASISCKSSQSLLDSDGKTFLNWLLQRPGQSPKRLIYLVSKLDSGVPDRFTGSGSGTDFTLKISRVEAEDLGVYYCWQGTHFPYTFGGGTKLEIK
notes: Whole mouse monoclonal antibody from a hybridoma (supernatant or antibody); Kappa light chain; The controls are called isotype-matched and murine IgG2a, which implies IgG2a; also called mAb 1D9; mus-1D9
